Source: US20110091971A1, “Differentiation of Pluripotent Stem Cells” (priority 2008, published 2011)

B1: ACTN1: wild type Activin A mature protein (SwissProt/UniProt: P08476), SEQ ID 2, expressed from applicant's construct (protein)
chain: GLECDGKVNICCKKQFFVSFKDIGWNDWIIAPSGYHANYCEGECPSHIAGTSGSSLSFHSTVINHYRMRGHSPFANLKSCCVPTKLRPMSMLYYDDGQNIIKKDIQNMIVEECGCS
B2: ACTN4: activin A variant peptide, SEQ ID 5 (protein)
chain: GLECDGKVNLCCKKQLFVSFKDIGWNDWIIAPSGYHANHCSGLCPSHIAGTSGSSLSFHSTVINHYRMRGHSPFSDMGACCVPTKLRPMSMLYYDDGQNIIKKDIQNMIVEECGCS
B3: ACTN48: activin A variant peptide, SEQ ID 49 (protein)
chain: GLECDGKVNLCCKKQNFVSFKDIGWNDWIIAPSGYHANECSGLCPSHIAGTSGSSLSFHSTVINHYRMRGHSPFANMGACCIPTKLRPMSMLYYDDGQNIIKKDIQNMIVEECGCS

System: Human Embryonic Stem Cells (H1 hESC line)
Assay: High content analysis of cell number and SOX17 expression at end of first step of differentiation (Example 12)
Format: cell-based
Details: 100 ng/ml peptide, FIG. 23C-F
Procedure: Preparation of Cells for Assay: Stock Cultures of Human Embryonic Stem Cells (H1 hESC line) were maintained in an undifferentiated, pluripotent state on growth factor-reduced MATRIGEL™-coated dishes in MEF conditioned medium supplemented with bFGF (PeproTech; Cat #100-18B) with passage on average every, four days. Passage was performed by exposing cell cultures to a solution of 1 mg/ml collagenase (Invitrogen, Cat #17104-019) for five to seven minutes at 37° C. followed by rinsing the monolayer with MEF conditioned medium and gentle scraping to recover cell clusters. Clusters were centrifuged at low speed to collect a cell pellet and remove residual collagenase. Cell clusters were split at a 1:3 or 1:4 ratio for routine maintenance culture or a 1:1 ratio for immediate assay. All human ES cell lines were maintained at passage numbers less than 50 and routinely evaluated for normal karyotypic phenotype and for absence of mycoplasma contamination.
Cell clusters were evenly resuspended in MEF conditioned medium supplemented with 8 ng/ml bFGF and seeded onto growth factor-reduced MATRIGEL™-coated 24-well, black wall culture plates (Arctic White; Cat #AWLS-303012) in volumes of 0.5 ml/well. Daily feeding was conducted by aspirating spent culture medium from each well and replacing with an equal volume of fresh medium. Plates were maintained at 37° C., 5% CO2 throughout the duration of assay.
Assay: The assay was initiated by aspirating culture medium from each well and adding back an aliquot (0.5 ml) of test medium. Test conditions for the first step of differentiation were conducted over a three-day period, feeding daily by aspirating and replacing the medium from each well with fresh test medium. Concentrated supernatants of the ACTN peptides were evaluated for protein concentration using a DuoSet ELISA kit for human activin A (R&D Systems; Cat #DY338), as previously described in Example 11. On the first day of assay, ACTN peptides were diluted to a final concentration of 100 ng/ml in RPMI 1640 medium (Invitrogen; Cat #: 22400) with 2% Albumin Bovine Fraction V, Fatty Acid Free (FAF BSA) (MP Biomedicals, Inc; Cat #152401), 8 ng/ml bFGF, and 20 ng/ml Wnt3a (R&D Systems; Cat #1324-WN/CF) and then added to the assay wells. On the second and third day of assay, ACTN peptides were diluted into RPMI 1640 medium supplemented with 2% fatty acid free BSA and 8 ng/ml bFGF, without any Wnt3a and then added to the assay wells. A positive control sample included a commercial source of activin A (PeproTech; Cat #12 0-14) diluted in culture medium with growth factors as indicated. At the conclusion of three days culture, cells from some wells were harvested for analysis by flow cytometry to evaluate levels of CXCR4, a marker of definitive endoderm formation. […]

Question: For B1, which “cell number and SOX17 expression (high content analysis)” value (from here on “cell number and SOX17 expression”) is on record?
Answer: Its value is “equivalent results”.

Question: B2 was tested. Which “cell number and SOX17 expression” value did it give?
Answer: Its value is “comparable results”.

Question: With B3 as the molecule, how does the “cell number and SOX17 expression” value read?
Answer: The value was “comparable results”.
